In the supplement of paper PMC6757056:
± gives the standard deviation of the averaged measurements.

B1: library; a variant is named by its letters at N, in order (parent)
chain: GCUGUCACCGGUGUAUUACCCUAGUGGUCGACCGGUCUGAUGAGUCUNNNNNNAGACGAAACAGC

Key:
hypoxanthine [1] = variants of: B1; experiment: normalized RNA/DNA level with ligand (relative to sTRSVctl = 100) (log10 (% of sTRSVctl)); ligand: hypoxanthine (xanthine aptamer); higher = less ribozyme self-cleavage, higher mRNA level; conditions: ligand concentration (+) RNA-Seq: 5 mM, HEK293T, reporter: mCherry (pCS4076), ligand present: yes
Summary of the method: (§1)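 Only sequences with at least 100 DNA reads were analyzed, from HEK293T cells transfected with 4 µg per 6-well well of ribozyme switch library plasmids 72 h before RNA extraction with EDTA. Any ligand was added 1 h before transfection. RNA level was defined as RNA over DNA reads, normalized to a spiked-in non-cleaving sequence or to the top sequences, then scaled and log-transformed. The top set was 25 sequences, and the scaling was ×100 followed by log10.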

hypoxanthine [2] = variants of: B1; experiment: normalized RNA/DNA level without ligand (relative to sTRSVctl = 100) (log10 (% of sTRSVctl)); ligand: hypoxanthine (xanthine aptamer); higher = less ribozyme self-cleavage, higher mRNA level; conditions: HEK293T, reporter: mCherry (pCS4076), ligand present: no
Summary of the method: as §1

Variant	normalized RNA/DNA level with ligand (log10) (hypoxanthine [1])	normalized RNA/DNA level without ligand (log10) (hypoxanthine [2])
GCUGUCACCGGUGUAUUACCCUAGUGGUCGACCGGUCUGAUGAGUCUGUUGAAAGACGAAACAGC [GUUGAA]	1.918 ± 0.016	1.744 ± 0.0083
GCUGUCACCGGUGUAUUACCCUAGUGGUCGACCGGUCUGAUGAGUCUGUUGACAGACGAAACAGC [GUUGAC]	1.917 ± 0.015	1.72 ± 0.057
GCUGUCACCGGUGUAUUACCCUAGUGGUCGACCGGUCUGAUGAGUCUAUUGCAAGACGAAACAGC [AUUGCA]	1.9 ± 0.0078	1.8 ± 0.026
GCUGUCACCGGUGUAUUACCCUAGUGGUCGACCGGUCUGAUGAGUCUUUUGCAAGACGAAACAGC [UUUGCA]	1.94 ± 0.039	1.89 ± 0.033
GCUGUCACCGGUGUAUUACCCUAGUGGUCGACCGGUCUGAUGAGUCUUUUCUAAGACGAAACAGC [UUUCUA]	1.91 ± 0.02	1.87 ± 0.048
GCUGUCACCGGUGUAUUACCCUAGUGGUCGACCGGUCUGAUGAGUCUUUUCUGAGACGAAACAGC [UUUCUG]	1.942 ± 0.009	1.77 ± 0.026
GCUGUCACCGGUGUAUUACCCUAGUGGUCGACCGGUCUGAUGAGUCUUUUCUCAGACGAAACAGC [UUUCUC]	1.99 ± 0.064	1.963 ± 0.0086
GCUGUCACCGGUGUAUUACCCUAGUGGUCGACCGGUCUGAUGAGUCUUUUCUUAGACGAAACAGC [UUUCUU]	1.94 ± 0.036	1.95 ± 0.036
GCUGUCACCGGUGUAUUACCCUAGUGGUCGACCGGUCUGAUGAGUCUCUUCUCAGACGAAACAGC [CUUCUC]	2.041 ± 0.013	2.03 ± 0.059
GCUGUCACCGGUGUAUUACCCUAGUGGUCGACCGGUCUGAUGAGUCUCUUCUGAGACGAAACAGC [CUUCUG]	1.948 ± 0.013	1.91 ± 0.053
GCUGUCACCGGUGUAUUACCCUAGUGGUCGACCGGUCUGAUGAGUCUCUUCUUAGACGAAACAGC [CUUCUU]	2.01 ± 0.066	1.868 ± 0.0019
GCUGUCACCGGUGUAUUACCCUAGUGGUCGACCGGUCUGAUGAGUCUCUUGACAGACGAAACAGC [CUUGAC]	1.923 ± 0.019	1.812 ± 0.0094
GCUGUCACCGGUGUAUUACCCUAGUGGUCGACCGGUCUGAUGAGUCUCUUGAGAGACGAAACAGC [CUUGAG]	1.87 ± 0.03	1.72 ± 0.068
GCUGUCACCGGUGUAUUACCCUAGUGGUCGACCGGUCUGAUGAGUCUAUUCUUAGACGAAACAGC [AUUCUU]	1.94 ± 0.055	1.93 ± 0.023
GCUGUCACCGGUGUAUUACCCUAGUGGUCGACCGGUCUGAUGAGUCUAUUCUGAGACGAAACAGC [AUUCUG]	1.85 ± 0.061	1.61 ± 0.039
GCUGUCACCGGUGUAUUACCCUAGUGGUCGACCGGUCUGAUGAGUCUAUUGAAAGACGAAACAGC [AUUGAA]	1.91 ± 0.047	1.75 ± 0.026
GCUGUCACCGGUGUAUUACCCUAGUGGUCGACCGGUCUGAUGAGUCUGUUCUUAGACGAAACAGC [GUUCUU]	1.95 ± 0.051	1.92 ± 0.034
GCUGUCACCGGUGUAUUACCCUAGUGGUCGACCGGUCUGAUGAGUCUGUUCUGAGACGAAACAGC [GUUCUG]	1.89 ± 0.058	1.54 ± 0.03
GCUGUCACCGGUGUAUUACCCUAGUGGUCGACCGGUCUGAUGAGUCUGUUCUCAGACGAAACAGC [GUUCUC]	1.981 ± 0.0077	1.95 ± 0.02
GCUGUCACCGGUGUAUUACCCUAGUGGUCGACCGGUCUGAUGAGUCUUUUGAUAGACGAAACAGC [UUUGAU]	1.9 ± 0.052	1.7965 ± 0.0012
GCUGUCACCGGUGUAUUACCCUAGUGGUCGACCGGUCUGAUGAGUCUUUUGACAGACGAAACAGC [UUUGAC]	1.927 ± 0.0075	1.84 ± 0.037
